Assay results: publication PMC11535040, “Requirement of Nek2a and cyclin A2 for Wapl-dependent removal of cohesin from prophase chromatin” (The EMBO Journal, 2024)

Molecular target: T1, Flag-tagged Pds5b (wild type) from cells co-expressing Nek2aΔMR (human, UniProt Q9NTI5 1-1447, phosphoserine at 1177, 1182 and 1209 (by Nek2a))
T1 construct: Pds5b, human; insert by PCR on human cDNA; their state in this preparation was not measured; source: Hek293T co-expressing eGFP-Nek2aΔMR, taxol-arrested
T1 sequence (looked up): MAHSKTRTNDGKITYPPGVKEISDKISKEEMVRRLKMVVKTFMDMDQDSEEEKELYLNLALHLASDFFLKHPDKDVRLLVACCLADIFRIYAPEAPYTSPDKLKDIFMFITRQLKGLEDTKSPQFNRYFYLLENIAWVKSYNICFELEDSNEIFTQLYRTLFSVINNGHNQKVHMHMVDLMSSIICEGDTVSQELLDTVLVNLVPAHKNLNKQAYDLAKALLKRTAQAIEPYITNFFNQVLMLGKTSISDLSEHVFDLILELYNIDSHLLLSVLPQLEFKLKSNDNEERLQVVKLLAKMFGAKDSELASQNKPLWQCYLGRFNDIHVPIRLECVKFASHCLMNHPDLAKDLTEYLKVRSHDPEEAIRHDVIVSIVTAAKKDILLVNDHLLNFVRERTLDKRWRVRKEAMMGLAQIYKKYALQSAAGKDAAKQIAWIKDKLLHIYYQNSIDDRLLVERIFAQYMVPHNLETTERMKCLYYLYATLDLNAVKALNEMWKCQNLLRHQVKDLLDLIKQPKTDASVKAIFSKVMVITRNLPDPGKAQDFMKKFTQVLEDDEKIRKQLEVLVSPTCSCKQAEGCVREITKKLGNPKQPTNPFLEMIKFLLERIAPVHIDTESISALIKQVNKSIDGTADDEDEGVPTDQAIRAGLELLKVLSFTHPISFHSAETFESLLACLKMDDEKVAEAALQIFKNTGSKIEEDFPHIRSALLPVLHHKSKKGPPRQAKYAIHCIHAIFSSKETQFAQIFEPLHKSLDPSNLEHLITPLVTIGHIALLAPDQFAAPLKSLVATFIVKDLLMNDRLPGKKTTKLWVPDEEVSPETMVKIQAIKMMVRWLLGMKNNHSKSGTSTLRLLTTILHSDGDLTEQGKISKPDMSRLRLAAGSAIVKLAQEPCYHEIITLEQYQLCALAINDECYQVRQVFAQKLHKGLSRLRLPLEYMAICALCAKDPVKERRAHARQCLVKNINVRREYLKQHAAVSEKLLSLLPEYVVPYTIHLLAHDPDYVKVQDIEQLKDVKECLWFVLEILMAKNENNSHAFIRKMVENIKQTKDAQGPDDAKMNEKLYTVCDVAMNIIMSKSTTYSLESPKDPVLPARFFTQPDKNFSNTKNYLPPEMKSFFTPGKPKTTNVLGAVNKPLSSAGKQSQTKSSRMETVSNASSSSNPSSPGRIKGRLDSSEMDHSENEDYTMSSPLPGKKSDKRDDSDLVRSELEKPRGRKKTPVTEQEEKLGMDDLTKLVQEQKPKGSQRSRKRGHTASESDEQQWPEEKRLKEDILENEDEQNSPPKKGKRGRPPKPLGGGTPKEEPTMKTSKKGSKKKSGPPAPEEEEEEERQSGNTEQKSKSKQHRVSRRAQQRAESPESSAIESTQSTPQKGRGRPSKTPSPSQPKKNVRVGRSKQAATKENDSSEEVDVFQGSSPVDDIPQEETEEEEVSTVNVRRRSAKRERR
Test: pull-down; Flag-Pds5a or -b affinity-purified on anti-Flag beads from chromatin-free lysates of taxol-arrested Hek293T cells (expressed alone or with Nek2aΔMR and/or Δ86-cyclin A2); beads incubated with a mixture of recombinant Wapl (2 µl) and sororin (0.3 µg) in 15 µl cleavage buffer with kinase inhibitors, 20 min at 37 °C; bound and unbound fractions by immunoblotting
Settings: both partners purified

binding result: binds
B1: recombinant human Wapl (natural protein, UniProt Q7Z5K2 1-1190, looked up)
chain: MTSRFGKTYSRKGGNGSSKFDEVFSNKRTTLSTKWGETTFMAKLGQKRPNFKPDIQEIPKKPKVEEESTGDPFGFDSDDESLPVSSKNLAQVKCSSYSESSEAAQLEEVTSVLEANSKISHVVVEDTVVSDKCFPLEDTLLGKEKSTNRIVEDDASISSCNKLITSDKVENFHEEHEKNSHHIHKNADDSTKKPNAETTVASEIKETNDTWNSQFGKRPESPSEISPIKGSVRTGLFEWDNDFEDIRSEDCILSLDSDPLLEMKDDDFKNRLENLNEAIEEDIVQSVLRPTNCRTYCRANKTKSSQGASNFDKLMDGTSQALAKANSESSKDGLNQAKKGGVSCGTSFRGTVGRTRDYTVLHPSCLSVCNVTIQDTMERSMDEFTASTPADLGEAGRLRKKADIATSKTTTRFRPSNTKSKKDVKLEFFGFEDHETGGDEGGSGSSNYKIKYFGFDDLSESEDDEDDDCQVERKTSKKRTKTAPSPSLQPPPESNDNSQDSQSGTNNAENLDFTEDLPGVPESVKKPINKQGDKSKENTRKIFSGPKRSPTKAVYNARHWNHPDSEELPGPPVVKPQSVTVRLSSKEPNQKDDGVFKAPAPPSKVIKTVTIPTQPYQDIVTALKCRREDKELYTVVQHVKHFNDVVEFGENQEFTDDIEYLLSGLKSTQPLNTRCLSVISLATKCAMPSFRMHLRAHGMVAMVFKTLDDSQHHQNLSLCTAALMYILSRDRLNMDLDRASLDLMIRLLELEQDASSAKLLNEKDMNKIKEKIRRLCETVHNKHLDLENITTGHLAMETLLSLTSKRAGDWFKEELRLLGGLDHIVDKVKECVDHLSRDEDEEKLVASLWGAERCLRVLESVTVHNPENQSYLIAYKDSQLIVSSAKALQHCEELIQQYNRAEDSICLADSKPLPHQNVTNHVGKAVEDCMRAIIGVLLNLTNDNEWGSTKTGEQDGLIGTALNCVLQVPKYLPQEQRFDIRVLGLGLLINLVEYSARNRHCLVNMETSCSFDSSICSGEGDDSLRIGGQVHAVQALVQLFLERERAAQLAESKTDELIKDAPTTQHDKSGEWQETSGEIQWVSTEKTDGTEEKHKKEEEDEELDLNKALQHAGKHMEDCIVASYTALLLGCLCQESPINVTTVREYLPEGDFSIMTEMLKKFLSFMNLTCAVGTTGQKSISRVIEYLEHC
notes: Wapl, human; insert by PCR on human cDNA; Isolated from mitotically arrested cells; also called GFP-SUMOstar-Wapl; source: Hek293T, transiently transfected, taxol-arrested; not shown: GFP, N-terminal, cleaved; SUMOstar, N-terminal, cleaved
